17 substances from patent US20180251489A1 can be followed below.

For this assay, the target named is mucosa-associated lymphoid tissue lymphoma translocation protein 1 (UniProt Q9UDY8). Briefly: enzyme inhibition assay, 100 nM MALT1.
Chain of mucosa-associated lymphoid tissue lymphoma translocation protein 1 (Q9UDY8 340-789): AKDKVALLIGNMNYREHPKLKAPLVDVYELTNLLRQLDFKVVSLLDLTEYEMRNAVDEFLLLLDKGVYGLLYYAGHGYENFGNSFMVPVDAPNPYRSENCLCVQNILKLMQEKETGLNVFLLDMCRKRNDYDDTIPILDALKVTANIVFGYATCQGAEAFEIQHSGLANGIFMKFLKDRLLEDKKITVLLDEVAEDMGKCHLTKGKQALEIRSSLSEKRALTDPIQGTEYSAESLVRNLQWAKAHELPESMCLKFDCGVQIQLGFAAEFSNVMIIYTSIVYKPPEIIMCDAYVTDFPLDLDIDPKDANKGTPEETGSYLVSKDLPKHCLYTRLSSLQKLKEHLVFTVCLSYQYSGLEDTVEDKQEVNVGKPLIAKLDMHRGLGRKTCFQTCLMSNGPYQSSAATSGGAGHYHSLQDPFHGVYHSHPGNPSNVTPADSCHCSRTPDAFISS
On to “(S)-1-((2-Bromobenzoyl)-L-valyl)-N-((S)-1-fluoro-6-guanidino-2-oxohexan-3-yl)pyrrolidine-2-carboxamide (peptide)”, for which the Ki came out at 105 nM.
Consider “Benzyl ((S)-2-((S)-2-(((S)-1-fluoro-6-guanidino-2-oxohexan-3-yl)carbamoyl)pyrrolidin-1-yl)-2-oxo-1-phenylethyl)carbamate (peptide)”, for which the Ki amounted to 154 nM.
In turn, “(S)-1-((4-(tert-Butyl)benzoyl)-L-valyl)-N-((S)-1-fluoro-6-guanidino-2-oxohexan-3-yl)pyrrolidine-2-carboxamide (peptide)” returned a Ki of 45 nM.
Turning to “Benzyl ((S)-1-((S)-2-(((S)-1-fluoro-6-guanidino-2-oxohexan-3-yl)carbamoyl)-2-methylpyrrolidin-1-yl)-3-methyl-1-oxobutan-2-yl)carbamate (peptide)”, the Ki came to 158 nM.
As to “4-Bromo-N-((S)-1-(((S)-1-(((S)-1-fluoro-6-guanidino-2-oxohexan-3-yl)amino)-1-oxopropan-2-yl)amino)-3-methyl-1-oxobutan-2-yl)benzamide (peptide)”, the Ki was found to be 38 nM.
On to “Benzyl ((S)-1-((2S,4S)-2-(((S)-1-fluoro-6-guanidino-2-oxohexan-3-yl)carbamoyl)-4-hydroxypyrrolidin-1-yl)-3-methyl-1-oxobutan-2-yl)carbamate (peptide)”, for which the Ki amounted to 49 nM.
Turning to “(S)-1-(((2-Chlorophenyl)carbamoyl)-L-valyl)-N-((S)-1-fluoro-6-guanidino-2-oxohexan-3-yl)pyrrolidine-2-carboxamide (peptide)”, the inhibition constant Ki came to 24 nM.
With “(S)-1-(((4-Chlorophenyl)carbamoyl)-L-valyl)-N-((S)-1-fluoro-6-guanidino-2-oxohexan-3-yl)pyrrolidine-2-carboxamide (peptide)”, the Ki is 62 nM.
The substance “(S)-1-((4-bromo-3-fluorobenzoyl)-L-valyl)-N-((S)-1-fluoro-6-guanidino-2-oxohexan-3-yl)pyrrolidine-2-carboxamide (peptide)” displayed a Ki of 78 nM.
Under “N-((S)-1-((S)-2-(((S)-1-fluoro-6-guanidino-2-oxohexan-3-yl)carbamoyl)pyrrolidin-1-yl)-3-methyl-1-oxobutan-2-yl)quinoline-4-carboxamide (peptide)” stands 139 nM; under “(S)-N-((S)-1-fluoro-6-guanidino-2-oxohexan-3-yl)-1-((4-(trifluoromethoxy)benzoyl)-L-valyl)pyrrolidine-2-carboxamide (peptide)”, 27 nM; under “N-((S)-1-((S)-2-(((S)-1-fluoro-6-guanidino-2-oxohexan-3-yl)carbamoyl)pyrrolidin-1-yl)-3-methyl-1-oxobutan-2-yl)isoquinoline-6-carboxamide (peptide)”, 59 nM.
“Benzyl ((S)-2-((S)-2-(((S)-1-fluoro-6-guanidino-2-oxohexan-3-yl)carbamoyl)pyrrolidin-1-yl)-2-oxo-1-(pyridin-3-yl)ethyl)carbamate (peptide)” gave a Ki of 55 nM.
In turn, “(S)-3-((4-Bromobenzoyl)-L-valyl)-N-((S)-1-fluoro-6-guanidino-2-oxohexan-3-yl)oxazolidine-4-carboxamide (peptide)” registered a Ki of 20 nM.
Substance “(S)-4-((4-Bromobenzoyl)-L-valyl)-N-((S)-1-fluoro-6-guanidino-2-oxohexan-3-yl)morpholine-3-carboxamide (peptide)” displayed an inhibition constant Ki of 70 nM.
The substance “4-bromo-N-((S)-1-(((S)-1-(((S)-1-fluoro-6-guanidino-2-oxohexan-3-yl)amino)-3-hydroxy-1-oxopropan-2-yl)amino)-3-methyl-1-oxobutan-2-yl)benzamide (peptide)” yielded a Ki of 64 nM.
As for “(S)-N-((S)-1-Fluoro-6-guanidino-2-oxohexan-3-yl)-1-((2-phenylacetyl)-L-valyl)pyrrolidine-2-carboxamide (peptide)”, the Ki amounted to 42 nM.
